# Reference: publication PMC8980211 (2022)
# Target: SARS-CoV-2 RBD protein (immobilised in SPR) (SARS-CoV-2, UniProt P0DTC2 319-541)
# Experiment: SPR
binder,measurement,value
"mAb 35B5 (antibody, V domains shown) VH: QVQLLESGGGLVQPGRSLRLSCAASGFTFDDYAMHWVRQAPGKGLEWVSGVSWNSGTIGYADSVKGRFTISRDNAKNSLYLHMRSLRAEDTALYYCAKAVEMVRGLMGLGADPEYGMDVWGQGTTVTVSS VL: not shown",koff,5.49e-06 s⁻¹
